Assay [1] concerns the target T1, human β-FXIIa (HFXIIAB; Molecular Innovations) (human, UniProt P00748 354-362; P00748 373-615, limits assumed).
T1 construct: domain: catalytic domain; Bought; also called human b-FXIIa; human FXIIa
Put plainly: protease inhibition assay, fluorogenic substrate.

The target of assay [2] is T1, human β-FXIIa (HFXIIAB; Molecular …). The assay can be described thus: protease inhibition assay (Table in FIG. 6).
The target is the same in assay [3]. The assay can be described thus: protease inhibition assay.

Starred links: 1 amine or outer side, 2 acyl side, 3 side chain; linkers in the order of their positions; H or OH if unused. Positions of bridges follow the written chain, without caps; N, C: chain ends. Non-standard residues stand in square brackets, D forms with d. No end group written: not given here. TATA = O=C(CC[*:1])N1CN(C(=O)CC[*:2])CN(C(=O)CC[*:3])C1; Phe(4-NO2) = N[C@@H](Cc1ccc([N+](=O)[O-])cc1)C(=O)O; Phe(3-F) = N[C@@H](Cc1cccc(F)c1)C(=O)O; Phe(3-Me) = Cc1cccc(C[C@H](N)C(=O)O)c1; Phe(4-F) = N[C@@H](Cc1ccc(F)cc1)C(=O)O; 1Nal = N[C@@H](Cc1cccc2ccccc12)C(=O)O; Phe(2-F) = N[C@@H](Cc1ccccc1F)C(=O)O; 3Pal = N[C@@H](Cc1cccnc1)C(=O)O

As usually defined, the Ki is a measure of affinity in units of concentration, obtained from inhibition or displacement.

T1 sequence (P00748 373-615 limits assumed, one chain of several): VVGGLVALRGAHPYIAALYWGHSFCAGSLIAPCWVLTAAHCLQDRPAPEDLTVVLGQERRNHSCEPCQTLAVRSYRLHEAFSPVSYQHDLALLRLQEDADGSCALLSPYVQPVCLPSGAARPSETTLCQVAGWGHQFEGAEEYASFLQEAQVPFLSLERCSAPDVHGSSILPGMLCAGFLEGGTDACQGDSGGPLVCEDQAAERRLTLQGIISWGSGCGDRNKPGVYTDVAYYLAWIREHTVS

B1: peptide 52 (peptide 2, methyl group in meta-position of the phenyl ring of Phe3) (peptide)
peptide: RC[Phe(3-Me)]RLPCRQLRCRW-NH2
modifications: linker 2-7-12 via TATA; N-terminus assumed
SMILES: Cc1cccc(C[C@@H]2NC(=O)[C@@H](NC(=O)[C@@H](N)CCCNC(=N)N)CSCCC(=O)N3CN4CN(C3)C(=O)CCSC[C@H](NC(=O)[C@@H]3CCCN3C(=O)[C@H](CC(C)C)NC(=O)[C@H](CCCNC(=N)N)NC2=O)C(=O)N[C@@H](CCCNC(=N)N)C(=O)N[C@@H](CCC(N)=O)C(=O)N[C@@H](CC(C)C)C(=O)N[C@@H](CCCNC(=N)N)C(=O)N[C@H](C(=O)N[C@@H](CCCNC(=N)N)C(=O)N[C@@H](Cc2c[nH]c3ccccc23)C(N)=O)CSCCC4=O)c1
B1 yielded an inhibitory constant (Ki) in assay [1] of 10.4 nM.

B2: peptide 56 (peptide 2, fluorine in ortho-position of Phe3) (peptide)
peptide: RC[Phe(2-F)]RLPCRQLRCRW-NH2
modifications: linker 2-7-12 via TATA; N-terminus assumed
SMILES: CC(C)C[C@@H]1NC(=O)[C@H](CCC(N)=O)NC(=O)[C@H](CCCNC(=N)N)NC(=O)[C@@H]2CSCCC(=O)N3CN(CN(C3)C(=O)CCSC[C@H](NC(=O)[C@@H](N)CCCNC(=N)N)C(=O)N[C@@H](Cc3ccccc3F)C(=O)N[C@@H](CCCNC(=N)N)C(=O)N[C@@H](CC(C)C)C(=O)N3CCC[C@H]3C(=O)N2)C(=O)CCSC[C@@H](C(=O)N[C@@H](CCCNC(=N)N)C(=O)N[C@@H](Cc2c[nH]c3ccccc23)C(N)=O)NC(=O)[C@H](CCCNC(=N)N)NC1=O
For B2, in assay [1], the Ki stood at 13.1 nM.

B3: peptide 60 (peptide 2, nitro group in para position of Phe3) (peptide)
peptide: RC[Phe(4-NO2)]RLPCRQLRCRW-NH2
modifications: linker 2-7-12 via TATA; also: description names 2-nitro-phenylalanine, example says para
In turn, B3 registered an inhibition constant (Ki) in assay [1] of 4.5 nM.

B4: peptide 63 (bicyclic peptide without the C-terminal arginine) (peptide)
peptide: RCFRLPCRQLRC-NH2
modifications: linker 2-7-12 via TATA; N-terminus assumed
SMILES: CC(C)C[C@@H]1NC(=O)[C@H](CCC(N)=O)NC(=O)[C@H](CCCNC(=N)N)NC(=O)[C@@H]2CSCCC(=O)N3CN(CN(C3)C(=O)CCSC[C@H](NC(=O)[C@@H](N)CCCNC(=N)N)C(=O)N[C@@H](Cc3ccccc3)C(=O)N[C@@H](CCCNC(=N)N)C(=O)N[C@@H](CC(C)C)C(=O)N3CCC[C@H]3C(=O)N2)C(=O)CCSC[C@@H](C(N)=O)NC(=O)[C@H](CCCNC(=N)N)NC1=O
Turning to B4, the inhibitory constant (Ki) in assay [1] was 28.8 nM.

In turn, RC[Phe(4-F)]RLPCRQLRCRW-NH2 (linker 2-7-12 via TATA) [peptide 58 (peptide 2, fluorine in para-position of Phe3)] yielded a Ki in assay [1] of 2.31 nM.

B5: peptide 54 (peptide 2, carbon replaced with nitrogen in meta-position of the phenyl ring of Phe3) (peptide)
peptide: RC[3Pal]RLPCRQLRCRW-NH2
modifications: linker 2-7-12 via TATA; N-terminus assumed
SMILES: CC(C)C[C@@H]1NC(=O)[C@H](CCC(N)=O)NC(=O)[C@H](CCCNC(=N)N)NC(=O)[C@@H]2CSCCC(=O)N3CN(CN(C3)C(=O)CCSC[C@H](NC(=O)[C@@H](N)CCCNC(=N)N)C(=O)N[C@@H](Cc3cccnc3)C(=O)N[C@@H](CCCNC(=N)N)C(=O)N[C@@H](CC(C)C)C(=O)N3CCC[C@H]3C(=O)N2)C(=O)CCSC[C@@H](C(=O)N[C@@H](CCCNC(=N)N)C(=O)N[C@@H](Cc2c[nH]c3ccccc23)C(N)=O)NC(=O)[C@H](CCCNC(=N)N)NC1=O
In assay [1], B5 yielded a Ki of 8.4 nM.

B6: peptide 62 (bicyclic peptide without the N-terminal arginine) (peptide)
peptide: CFRLPCRQLRCR-NH2
modifications: linker 1-6-11 via TATA; N-terminus assumed
SMILES: CC(C)C[C@@H]1NC(=O)[C@H](CCC(N)=O)NC(=O)[C@H](CCCNC(=N)N)NC(=O)[C@@H]2CSCCC(=O)N3CN(CN(C3)C(=O)CCSC[C@H](N)C(=O)N[C@@H](Cc3ccccc3)C(=O)N[C@@H](CCCNC(=N)N)C(=O)N[C@@H](CC(C)C)C(=O)N3CCC[C@H]3C(=O)N2)C(=O)CCSC[C@@H](C(=O)N[C@@H](CCCNC(=N)N)C(N)=O)NC(=O)[C@H](CCCNC(=N)N)NC1=O
For B6, in assay [1], the Ki was determined as 932 nM.

B7: peptide 2 (FXII618 with a tryptophan appended to the C-terminus) (peptide)
peptide: RCFRLPCRQLRCRW-NH2
modifications: linker 2-7-12 via TATA; N-terminus assumed
SMILES: CC(C)C[C@@H]1NC(=O)[C@H](CCC(N)=O)NC(=O)[C@H](CCCNC(=N)N)NC(=O)[C@@H]2CSCCC(=O)N3CN(CN(C3)C(=O)CCSC[C@H](NC(=O)[C@@H](N)CCCNC(=N)N)C(=O)N[C@@H](Cc3ccccc3)C(=O)N[C@@H](CCCNC(=N)N)C(=O)N[C@@H](CC(C)C)C(=O)N3CCC[C@H]3C(=O)N2)C(=O)CCSC[C@@H](C(=O)N[C@@H](CCCNC(=N)N)C(=O)N[C@@H](Cc2c[nH]c3ccccc23)C(N)=O)NC(=O)[C@H](CCCNC(=N)N)NC1=O
In turn, B7 displayed a Ki in assay [1] of 26 nM.

B8: peptide 9 (peptide 2, Phe3 to proline) (peptide)
peptide: RCPRLPCRQLRCRW-NH2
modifications: linker 2-7-12 via TATA; N-terminus assumed
SMILES: CC(C)C[C@@H]1NC(=O)[C@H](CCC(N)=O)NC(=O)[C@H](CCCNC(=N)N)NC(=O)[C@@H]2CSCCC(=O)N3CN(CN(C3)C(=O)CCSC[C@H](NC(=O)[C@@H](N)CCCNC(=N)N)C(=O)N3CCC[C@H]3C(=O)N[C@@H](CCCNC(=N)N)C(=O)N[C@@H](CC(C)C)C(=O)N3CCC[C@H]3C(=O)N2)C(=O)CCSC[C@@H](C(=O)N[C@@H](CCCNC(=N)N)C(=O)N[C@@H](Cc2c[nH]c3ccccc23)C(N)=O)NC(=O)[C@H](CCCNC(=N)N)NC1=O
notes: Number tied to residue by the order of the list
As to B8, in assay [2], the Ki was < 100 nM.

B9: peptide 3 (peptide 2, Phe3 to tryptophan) (peptide)
peptide: RCWRLPCRQLRCRW-NH2
modifications: linker 2-7-12 via TATA; N-terminus assumed
SMILES: CC(C)C[C@@H]1NC(=O)[C@H](CCC(N)=O)NC(=O)[C@H](CCCNC(=N)N)NC(=O)[C@@H]2CSCCC(=O)N3CN(CN(C3)C(=O)CCSC[C@H](NC(=O)[C@@H](N)CCCNC(=N)N)C(=O)N[C@@H](Cc3c[nH]c4ccccc34)C(=O)N[C@@H](CCCNC(=N)N)C(=O)N[C@@H](CC(C)C)C(=O)N3CCC[C@H]3C(=O)N2)C(=O)CCSC[C@@H](C(=O)N[C@@H](CCCNC(=N)N)C(=O)N[C@@H](Cc2c[nH]c3ccccc23)C(N)=O)NC(=O)[C@H](CCCNC(=N)N)NC1=O
As to B9, the Ki in assay [1] amounted to 26 nM.

B10: peptide 10 (peptide 2, Arg4 to lysine) (peptide)
peptide: RCFKLPCRQLRCRW-NH2
modifications: linker 2-7-12 via TATA; N-terminus assumed
SMILES: CC(C)C[C@@H]1NC(=O)[C@H](CCC(N)=O)NC(=O)[C@H](CCCNC(=N)N)NC(=O)[C@@H]2CSCCC(=O)N3CN(CN(C3)C(=O)CCSC[C@H](NC(=O)[C@@H](N)CCCNC(=N)N)C(=O)N[C@@H](Cc3ccccc3)C(=O)N[C@@H](CCCCN)C(=O)N[C@@H](CC(C)C)C(=O)N3CCC[C@H]3C(=O)N2)C(=O)CCSC[C@@H](C(=O)N[C@@H](CCCNC(=N)N)C(=O)N[C@@H](Cc2c[nH]c3ccccc23)C(N)=O)NC(=O)[C@H](CCCNC(=N)N)NC1=O
Take B10: the “fold reduction of activity vs peptide 2” value in assay [3] is 10 fold. In assay [1], this molecule returned a Ki of 283 nM.

Turning to H-RC[1Nal]RLPCRQLRCRW-NH2 (linker 2-7-12 via TATA) [FXII618 variant with F in position three replaced by 1-naphthylalanine], in assay [2], the Ki is < 50 nM.

On to RC[Phe(3-F)]RLPCRQLRCRW-NH2 (linker 2-7-12 via TATA) [peptide 57 (peptide 2, fluorine in meta-position of Phe3)], for which, in assay [2], the inhibition constant (Ki) was < 100 nM.

The values are drawn from patent publication US20180118786A1 (ECOLE POLYTECHNIQUE FEDERALE DE LAUSANNE EPFL, published 2018).
